Results reported in patent US20260242478A1 (published 2026).
Where no end group is shown, it is not given here.

B1: Phage-267 (peptide)
peptide: MTLCLSVDLVHCWY
modifications: cysteine pairing not given here; also: displayed on bacteriophage as fusion to pIII, fusion limits and linker not given here
notes: Clonal phage of the Peptide-9 library, tested as crude phage supernatant; not shown: pIII of the bacteriophage
B2: Phage-251 (peptide)
peptide: MDWCPRFMWSECFS
modifications: cysteine pairing not given here; also: fused to phage pIII, linker and fusion site not given here
notes: as for B1
B3: Phage-259 (peptide)
peptide: MDWCPRNLWHACFN
modifications: cysteine pairing not given here; also: fused to phage pIII, linker and fusion site not given here
notes: as for B1
B4: Phage-261 (peptide)
peptide: MDWCPMFMWHECFN
modifications: cysteine pairing not given here; also: displayed on phage as pIII fusion, fusion limits and linker not given here
notes: as for B1
B5: Phage-254 (peptide)
peptide: MDWCPRYLWSECFA
modifications: cysteine pairing not given here; also: fused to phage pIII, linker and fusion site not given here
notes: as for B1
B6: Phage-253 (peptide)
peptide: MVGCATSMWNRCLT
modifications: cysteine pairing not given here; also: fused to phage pIII, linker and fusion site not given here
notes: as for B1
B7: Phage-272 (peptide)
peptide: MVWCMSVGWAVCLN
modifications: cysteine pairing not given here; also: displayed on phage as fusion to pIII, fusion limits and linker not given here
notes: as for B1
B8: Phage-264 (peptide)
peptide: MDWCPRHLWHVCFN
modifications: cysteine pairing not given here; also: displayed on phage pIII, linker not given here
notes: as for B1
B9: Phage-255 (peptide)
peptide: MDWCPRHLWSVCFN
modifications: cysteine pairing not given here; also: fused to phage pIII, linker and fusion site not given here
notes: as for B1
B10: Phage-275 (peptide)
peptide: MDWCPRDHWVDCYS
modifications: cysteine pairing not given here; also: displayed on phage as fusion to pIII, fusion limits and linker not given here
notes: as for B1
B11: Phage-262 (peptide)
peptide: MYWCATSMWNRCFV
modifications: cysteine pairing not given here; also: displayed on phage pIII, linker not given here
notes: as for B1
B12: Phage-256 (peptide)
peptide: MDWCPFDLWHVCYN
modifications: cysteine pairing not given here; also: fused to phage pIII, linker and fusion site not given here
notes: as for B1
B13: Phage-257 (peptide)
peptide: MDWCPRFLWHECFN
modifications: cysteine pairing not given here; also: fused to phage pIII, linker and fusion site not given here
notes: as for B1
B14: Phage-270 (peptide)
peptide: MDWCPRDFWAFCFF
modifications: cysteine pairing not given here; also: displayed on phage as fusion to pIII, fusion limits and linker not given here
notes: as for B1
B15: Phage-263 (peptide)
peptide: MDWCPRHMWHECFA
modifications: cysteine pairing not given here; also: displayed on phage pIII, linker not given here
notes: as for B1
B16: Phage-252 (peptide)
peptide: MDWCPRHMWINCFA
modifications: cysteine pairing not given here; also: fused to phage pIII, linker and fusion site not given here
notes: as for B1
B17: Phage-266 (peptide)
peptide: VTSCPTTMWNRCFS
modifications: cysteine pairing not given here; also: displayed on bacteriophage as fusion to pIII, fusion limits and linker not given here
notes: as for B1
B18: Phage-269 (peptide)
peptide: DSFCTWSAWQECGR
modifications: cysteine pairing not given here; also: phage-displayed pIII fusion, pIII and linker not given here
notes: as for B1
B19: Phage-274 (peptide)
peptide: WVSCLRHHWLECFH
modifications: cysteine pairing not given here; also: displayed on phage as fusion to pIII, fusion limits and linker not given here
notes: as for B1

How the values were obtained:
[1] = molecular target: T1, Anti-CD28 scFv (VH - linker 1 - VL) (biotinylated (site not given)); assay: phage binding ELISA on anti-CD28 scFv plate; wells pre-incubated with soluble CD28 as competitor;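 further: clonal phage supernatants tested, bound phage read out with an HRP-linked anti-M13 antibody, reference wells received blocking buffer lacking CD28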
[2] = molecular target: T1, Anti-CD28 scFv (VH - linker 1 - VL); assay: phage binding ELISA; biotinylated anti-CD28 scFv on neutravidin plate, bound phage detected with anti-M13-HRP
Protocol: (§1) Clonal phage were harvested as crude supernatants and screened via standard enzyme linked immunosorbent assays (ELISAs). […] Prior to the addition of clonal phage, wells were incubated with blocking buffer and CD28 soluble protein or blocking buffer alone. Without washing or aspirating, clonal phage supernatants were then added to the wells and incubated for a short time. Wells were then washed followed by detection of bound phage using a horse radish peroxidase conjugated anti-M13 antibody.

[3] = molecular target: T2, Anti-CD28 scFv (VH - linker 1 - VL) (biotinylated (site not stated)); assay: phage ELISA; biotinylated anti-CD28 scFv on neutravidin plate, clonal phage supernatant, anti-M13-HRP;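 further: before the phage were added, wells were pre-incubated with soluble CD28 protein in blocking buffer, or with blocking buffer alone, and were not washed in between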
T2 construct: Biotinylated scFv captured on neutravidin coated plates in the panning ELISA

[4] = molecular target: T2, Anti-CD28 scFv (VH - linker 1 - VL); assay: phage ELISA as above, wells pre-incubated with soluble CD28 (competitor);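 further: ELISA of crude clonal phage supernatants added to wells pre-treated with soluble CD28 in blocking buffer, bound phage read out with HRP-conjugated anti-M13 antibody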
Protocol: as §1

T1 sequence (scFv, as listed by the source): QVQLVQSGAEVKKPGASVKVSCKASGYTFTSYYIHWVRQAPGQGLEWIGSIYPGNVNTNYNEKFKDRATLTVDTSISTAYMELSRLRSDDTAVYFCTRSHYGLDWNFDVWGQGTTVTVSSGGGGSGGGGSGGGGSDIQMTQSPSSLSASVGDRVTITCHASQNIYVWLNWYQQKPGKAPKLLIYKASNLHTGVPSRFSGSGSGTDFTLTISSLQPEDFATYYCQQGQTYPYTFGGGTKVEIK
T2 sequence (scFv, as listed by the source): as above

Binder | CD28 scFv signal in presence of CD28 [1] | CD28 scFv signal [2] | CD28 scFv signal [3] | CD28 scFv signal in presence of CD28 [4]
B1 | 0.093 | 0.632 | – | –
ITWCPTSLWNRCLV [Phage-382] | – | – | 0.242 | 0.089
B2 | 0.137 | 1.01 | – | –
B3 | 0.112 | 1.57 | – | –
MDYCPSYLWHECFA [Phage-380] | – | – | 0.47 | 0.09
B4 | 1.04 | 2.23 | – | –
MDWCPRNLWAECFS [Phage-379] | – | – | 0.538 | 0.08
B5 | 0.513 | 2.71 | – | –
MDWCPRYLWVDCFA [Phage-372] | – | – | 0.917 | 0.218
B6 | 0.746 | 0.77 | – | –
B7 | 0.284 | 0.271 | – | –
B8 | 0.636 | 2.67 | – | –
B9 | 0.825 | 2.65 | – | –
MDWCPFDLWLECFN [Phage-377] | – | – | 0.65 | 0.12
B10 | 0.092 | 0.671 | – | –
B11 | 0.415 | 0.398 | – | –
B12 | 0.651 | 2.6 | – | –
B13 | 0.351 | 2.59 | – | –
B14 | 0.655 | 2.37 | – | –

Binder | CD28 scFv signal in presence of CD28 [1] | CD28 scFv signal [2] | CD28 scFv signal [3] | CD28 scFv signal in presence of CD28 [4]
LAGCQRDLATVCVI [Phage-383] | – | – | 0.229 | 0.116
B15 | 0.298 | 2.52 | – | –
B16 | 0.165 | 0.92 | – | –
B17 | 0.546 | 1.22 | – | –
MAWCPLDLWDKCFY [Phage-374] | – | – | 0.77 | 0.141
MNWCPRALWHECFL [Phage-375] | – | – | 0.759 | 0.107
MHWCPLHLWNECFA [Phage-378] | – | – | 0.575 | 0.083
IMWCPTSLWNRCVT [Phage-384] | – | – | 0.161 | 0.129
MHWCPRDLWYECFA [Phage-369] | – | – | 0.995 | 0.108
MTWCPAYLWHECFN [Phage-370] | – | – | 0.985 | 0.139
MDWCPRHLWTYCFH [Phage-376] | – | – | 0.757 | 0.207
MDWCPRILWSDCFN [Phage-373] | – | – | 0.847 | 0.113
MDWCPRHLWLECFN [Phage-387] | – | – | 0.066 | 0.074
ILRCQMNLQDECLN [Phage-385] | – | – | 0.083 | 0.077
MAWCPRILWHQCFN [Phage-381] | – | – | 0.322 | 0.129
NHWCPTTLWNRCVA [Phage-386] | – | – | 0.078 | 0.093
B18 | 0.101 | 0.13 | – | –
B19 | 0.858 | 0.723 | – | –
